# Data reported in patent US10702592B2, “Peptides and combination of peptides for use in immunotherapy against NHL and other cancers” (Immatics Biotechnologies GmbH, priority 2016, dated 2020).
# Target: HLA-A*02:01 (Homo sapiens, UniProt P04439, D140Y/D185E/D98H/E176V/E277Q/G131W/G231S/I119V/I121R/I166T/I218V/L300P/L318F/N151K/N90K/P208A/P217A/Q86G/Q94H/R138H/R169H/T345S)
# Test: MHC binding assay (UV-ligand exchange, beta2m ELISA)
# Settings: binding to HLA-A*02:01, UV-ligand exchange
# Procedure, shortened: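 Exchange yield is an ELISA read-out: complexes diluted 100-fold, captured on streptavidin plates, detected with HRP anti-β2m and TMB at 450 nm. Standard curve from refolded HLA-A*02:01/MLA-001 (15-500 ng/ml); complexes made by UV-triggered displacement of a photolabile ligand by test peptide.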
row,"Peptide exchange (MHC class I binding score, peptide exchange yield)",Substance
1,“++++” (≥75% = ++++),268 (VLFPLPTPL; listed as Homo sapiens) [compound 268]
2,“+++” (≥50 = +++),158 (KVQDVLHQV; listed as Homo sapiens) [compound 158]
3,“+++” (≥50 = +++),82 (FLIDGSSSV; listed as Homo sapiens) [compound 82]
4,“++++” (≥75% = ++++),282 (YLLEQGAQV; listed as Homo sapiens) [compound 282]
5,“+++” (≥50 = +++),295 (SLAAVSQQL; listed as Homo sapiens) [compound 295]
6,“+++” (≥50 = +++),63 (ALIEEAYGL; listed as Homo sapiens) [compound 63]
7,“++” (≥20% = ++),276 (NMISYVVHL; listed as Homo sapiens) [compound 276]
8,“+++” (≥50 = +++),140 (FLFEDFVEV; listed as Homo sapiens) [compound 140]
9,“+++” (≥50 = +++),168 (SLLSPLLSV; listed as Homo sapiens) [compound 168]
10,“+++” (≥50 = +++),209 (FLLDTISGL; listed as Homo sapiens) [compound 209]
11,“+++” (≥50 = +++),156 (KMLEDDLKL; listed as Homo sapiens) [compound 156]
12,“++” (≥20% = ++),197 (YLLTDNVVKL; listed as Homo sapiens) [compound 197]
13,“+++” (≥50 = +++),183 (VLFETVLTI; listed as Homo sapiens) [compound 183]
14,“+++” (≥50 = +++),263 (GLMDNEIKV; listed as Homo sapiens) [compound 263]
15,“++” (≥20% = ++),232 (KVMEGTVAA; listed as Homo sapiens) [compound 232]
16,“+” (≥10% = +),97 (LLNFSPGNL; listed as Homo sapiens) [compound 97]
17,“+++” (≥50 = +++),135 (ALTGLQFQL; listed as Homo sapiens) [compound 135]
18,“++++” (≥75% = ++++),266 (QLTEMLPSI; listed as Homo sapiens) [compound 266]
19,“+++” (≥50 = +++),164 (SLFDGAVISTV; listed as Homo sapiens) [compound 164]
20,“+++” (≥50 = +++),18 (KLTDQPPLV; listed as Homo sapiens) [compound 18]

row,"Peptide exchange (MHC class I binding score, peptide exchange yield)",Substance
1,“+++” (≥50 = +++),199 (SLNSTTWKV; listed as Homo sapiens) [compound 199]
2,“+++” (≥50 = +++),283 (ALMPVTPQA; listed as Homo sapiens) [compound 283]
3,“++++” (≥75% = ++++),293 (GLAMVEAISYV; listed as Homo sapiens) [compound 293]
4,“++++” (≥75% = ++++),138 (NLINNIFEL; listed as Homo sapiens) [compound 138]
5,“+++” (≥50 = +++),218 (ALDQFLEGI; listed as Homo sapiens) [compound 218]
6,“++++” (≥75% = ++++),243 (GLPDLDIYL; listed as Homo sapiens) [compound 243]
7,“++++” (≥75% = ++++),280 (SLLNHLPYL; listed as Homo sapiens) [compound 280]
8,“+++” (≥50 = +++),244 (ILEPFLPAV; listed as Homo sapiens) [compound 244]
9,“++++” (≥75% = ++++),229 (ILSPWGAEV; listed as Homo sapiens) [compound 229]
10,“++” (≥20% = ++),215 (QLFEEEIEL; listed as Homo sapiens) [compound 215]
11,“+++” (≥50 = +++),6 (TLITLPLLFL; listed as Homo sapiens) [compound 6]
12,“++++” (≥75% = ++++),55 (ILVEVDLVQA; listed as Homo sapiens) [compound 55]
13,“++++” (≥75% = ++++),71 (VLLDYVGNVQL; listed as Homo sapiens) [compound 71]
14,“+++” (≥50 = +++),127 (HLMEENMIVYV; listed as Homo sapiens) [compound 127]
15,“++” (≥20% = ++),14 (LLSDPTPGA; listed as Homo sapiens) [compound 14]
16,“+++” (≥50 = +++),231 (IVMGAIPSV; listed as Homo sapiens) [compound 231]
17,“+++” (≥50 = +++),167 (SLFSITKSV; listed as Homo sapiens) [compound 167]
18,“++++” (≥75% = ++++),101 (SLDQSTWNV; listed as Homo sapiens) [compound 101]
19,“+++” (≥50 = +++),246 (KLPVPLESV; listed as Homo sapiens) [compound 246]
20,“++++” (≥75% = ++++),31 (KLYDEESLL; listed as Homo sapiens) [compound 31]

# Continued, substance first:
row,Substance,"Peptide exchange (MHC class I binding score, peptide exchange yield)"
1,210 (FLAEQFEFL; listed as Homo sapiens) [compound 210],“+++” (≥50 = +++)
2,238 (YQYGAVVTL; listed as Homo sapiens) [compound 238],“+++” (≥50 = +++)
3,257 (FLQEWEVYA; listed as Homo sapiens) [compound 257],“++++” (≥75% = ++++)
4,310 (VMAEAPPGV; listed as Homo sapiens) [compound 310],“+++” (≥50 = +++)
5,240 (ALVPTPALFYL; listed as Homo sapiens) [compound 240],“+++” (≥50 = +++)
6,113 (FVIDSFEEL; listed as Homo sapiens) [compound 113],“+++” (≥50 = +++)
7,136 (FIFGIVHLL; listed as Homo sapiens) [compound 136],“+++” (≥50 = +++)
8,130 (VIFSYVLGV; listed as Homo sapiens) [compound 130],“+++” (≥50 = +++)
9,287 (ILMGHSLYM; listed as Homo sapiens) [compound 287],“++++” (≥75% = ++++)
10,233 (MLEVHIPSV; listed as Homo sapiens) [compound 233],“+++” (≥50 = +++)
11,112 (FLAILPEEV; listed as Homo sapiens) [compound 112],“+++” (≥50 = +++)
12,106 (VLYELLQYI; listed as Homo sapiens) [compound 106],“++++” (≥75% = ++++)
13,93 (KLLGSLQLL; listed as Homo sapiens) [compound 93],“++++” (≥75% = ++++)
14,208 (FLAVSLPLL; listed as Homo sapiens) [compound 208],“+++” (≥50 = +++)
15,272 (KLDHTLSQI; listed as Homo sapiens) [compound 272],“++++” (≥75% = ++++)
16,207 (GLVGLLEQA; listed as Homo sapiens) [compound 207],“++++” (≥75% = ++++)
17,139 (FLASPLVAI; listed as Homo sapiens) [compound 139],“++++” (≥75% = ++++)
18,141 (FLGELTLQL; listed as Homo sapiens) [compound 141],“+++” (≥50 = +++)
19,111 (YLLDTLLSL; listed as Homo sapiens) [compound 111],“+++” (≥50 = +++)
20,304 (ALIRLDDLFL; listed as Homo sapiens) [compound 304],“+++” (≥50 = +++)
21,146 (GLLQQPPAL; listed as Homo sapiens) [compound 146],“+++” (≥50 = +++)
22,92 (KLLFEIASA; listed as Homo sapiens) [compound 92],“+++” (≥50 = +++)
23,314 (LIDDKGTIKL; listed as Homo sapiens) [compound 314],“++” (≥20% = ++)
24,176 (YLHIYESQL; listed as Homo sapiens) [compound 176],“+++” (≥50 = +++)
25,178 (YVLQGEFFL; listed as Homo sapiens) [compound 178],“+++” (≥50 = +++)
26,163 (SIFDAVLKGV; listed as Homo sapiens) [compound 163],“++++” (≥75% = ++++)
27,241 (FIPDFIPAV; listed as Homo sapiens) [compound 241],“++” (≥20% = ++)
